In assay [1] the target is T1, human HER-2 protein (soluble / recombinant, used in SPR) (human, UniProt P04626 23-652).
T1 construct: also called immobilized HER2 protein; recombinant HER-2
Description: SPR, immobilized HER2 protein. Background: In SPR one partner is held on a chip, and binding of the other changes the refractive index at the surface.

Assay [2] deals with T1, human HER-2 protein (soluble / …). Description: SPR, human HER2 immobilised, Fab flown, 1:1 Langmuir model. On the procedure:
Rate constants of association, dissociation (kₐ, kd) and the equilibrium dissociation constants (KD) were determined for anti-HER2 Fab molecules. Human HER2 protein (50 μg/mL) was immobilised on the SPR sensor chip and was exposed to five different concentrations of each Fab in 2- or 3-fold dilutions over the flow cells. 1:1 Langmuir model was used to derive the constants.

Assay [3] shares this target. Kind of assay: SPR.
The target of assay [4] is T2, HER-3 (UniProt P21860 20-643, limits assumed). Kind of assay: SPR, HER-3 immobilised on the chip, antibody flowed; concentration not given [panel P1F1]. The text has this:
(§1) In order to assess the specificity of the binding, molecules closely related to HER-2 were also used as bound antigens, namely EGFR and HER-3.

For assay [5], the target named is T3, EGFR (UniProt P00533 25-645, limits assumed).
T3 construct: also called HER1
Kind of assay: SPR, EGFR immobilised on the chip, antibody flowed; concentration not given [panel P1F1].
Text: as §1

The target of assay [6] is T2, HER-3. Description: SPR, HER-3 immobilised on the chip, antibody flowed; concentration not given [panel P1C5].
Text: as §1

Assay [7] has as its target T3, EGFR. Description: SPR, EGFR immobilised on the chip, antibody flowed; concentration not given [panel P1C5].
Text: as §1

In assay [8] the target is T3, EGFR. Kind of assay: SPR, EGFR immobilised on the chip, antibody flowed; concentration not given [panel P1E4].
Text: as §1

Assay [9] concerns the target T2, HER-3. Description: SPR, HER-3 immobilised on the chip, antibody flowed; concentration not given [panel P1E4].
Text: as §1

Assay [10] has as its target T2, HER-3. Kind of assay: SPR, HER-3 immobilised on the chip, antibody flowed; concentration not given [panel P1A3].
Text: as §1

For assay [11], the target named is T3, EGFR. Kind of assay: SPR, EGFR immobilised on the chip, antibody flowed; concentration not given [panel P1A3].
Text: as §1

Substitutions are numbered along the chain they refer to.

T2 sequence (P21860 20-643 limits assumed): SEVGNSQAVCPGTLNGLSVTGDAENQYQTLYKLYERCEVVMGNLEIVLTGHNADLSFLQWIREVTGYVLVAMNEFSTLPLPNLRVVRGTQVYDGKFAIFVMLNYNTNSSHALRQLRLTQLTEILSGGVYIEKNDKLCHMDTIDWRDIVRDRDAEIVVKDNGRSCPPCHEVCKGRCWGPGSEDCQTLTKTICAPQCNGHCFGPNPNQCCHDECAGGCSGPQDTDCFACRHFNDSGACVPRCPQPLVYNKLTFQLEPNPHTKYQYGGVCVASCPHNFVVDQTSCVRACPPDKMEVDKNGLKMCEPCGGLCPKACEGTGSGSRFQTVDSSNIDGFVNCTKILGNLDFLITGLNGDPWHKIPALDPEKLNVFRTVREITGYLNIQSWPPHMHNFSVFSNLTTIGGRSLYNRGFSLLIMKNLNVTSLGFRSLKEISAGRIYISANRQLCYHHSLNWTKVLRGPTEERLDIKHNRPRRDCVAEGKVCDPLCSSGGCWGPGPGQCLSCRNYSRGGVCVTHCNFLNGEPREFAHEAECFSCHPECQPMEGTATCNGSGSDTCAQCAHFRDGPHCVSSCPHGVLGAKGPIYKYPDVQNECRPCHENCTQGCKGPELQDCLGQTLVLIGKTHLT

B1: PFA4 Fab (Fab, V domains shown)
VH: EVQLVQSGGGVVQPGRSLRLSCAASGFTFSSYAMHWVRQAPGKGLEWVAVISYDGSNKYYADSVKGRFTISRDNSKNTLYLQMNSLRAEDTAVYYCARSRGYYGMDVWGQGTTVTVSS
VL: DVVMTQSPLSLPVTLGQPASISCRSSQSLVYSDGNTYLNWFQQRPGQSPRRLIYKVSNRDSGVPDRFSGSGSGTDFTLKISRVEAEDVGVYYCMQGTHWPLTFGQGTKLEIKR
notes: Printed entries run through CL and CH1 (Fab chains); Label A4 tied to PFA4 by inference
What is called koff is the first-order rate constant of dissociation. As usually defined, the Kd is a measure of binding affinity in units of concentration. For orientation: kon means the rate constant with which the complex forms. Consider B1, for which the koff in assay [1] amounted to 0.0196 s⁻¹. For the same molecule, in [2], the Kd came to 20.5 nM, the koff is 0.042 s⁻¹ and the kon was found to be 2.03e+06 M⁻¹ s⁻¹.

B2: PFB4 Fab (Fab, V domains shown)
VH: B1 VH with A33G, N74D, R98K, S99D
VL: QAVVIQEPSLTVSPGGTVTLTCGSTTGAVTSGHYPSWFQQKPGQAPRALIYSTSNKHSWTPARFSGSLLGGKAALTLSGVQPEDEAEYYCLLYYGGARVFGGGTKLTVLG
notes: Printed entries run through CL and CH1 (Fab chains); Label B4 tied to PFB4 by inference
With B2, the koff in [1] came out at 0.0322 s⁻¹. In addition, in assay [2], the Kd came to 17.6 nM, the koff was 0.078 s⁻¹ and the kon was determined as 4.41e+06 M⁻¹ s⁻¹.

B3: PFE1 Fab (Fab, V domains shown)
VH: B1 VH
VL: DVVMTQSPLSLPVTLGQPASISCTSSQSLVYSDGNTYLNWFQQRPGQSPRRLIYKVSKRDSGVPDRFSGSGSGTDFTLKISRVEAEDVAIYYCMQGTHWPLTFGGGTKVEIKR
notes: Printed entries run through CL and CH1 (Fab chains); Label E1 tied to PFE1 by inference
As for B3, in assay [1], the koff stood at 0.013 s⁻¹. Further, in assay [2], the Kd was determined as 16.5 nM, the koff worked out at 0.026 s⁻¹ and the kon was found to be 1.59e+06 M⁻¹ s⁻¹.

B4: P1F1 antibody (antibody, V domains shown)
VH: QVQLVESGPGLVKPSGTLSLTCAVSGGSISSSNWWSWVRQPPGKGLEWIGEIYHSGSTNYNPSLKSRVTISVDTSKNQFSLKLSSVTAADTAVYYCARMGANSGGYLYGMDVWGQGTTVTVSS
VL: QTVVTQEPSFSVSPGGTVTLTCGLSSGSVSTSYYPSWYQQTPGQAPRTLIYSTNTRSSGVPDRFSGSILGNKAALTITGAQADDESDYYCVLYMGSGIWVFGGGTKLTVLG
Turning to B4, in assay [3], the Kd worked out at 11.6 nM. Besides, the binding result with HER-3 [4] and with EGFR [5] was “no binding” in each case.

B5: PFG3 Fab (Fab, V domains shown)
VH: EVQLVQSGAEVKKPGTSVTVSCRASGFTFSDYYIHWVRQAPGQGLEWMGWVSAYNGDTNYAQKFQGRVTVTTDTSTSTAYMELRSLRSDDTAVYFCAREIASYSGSYYDYWGQGTLVTVSS
VL: B4 VL with T2A, T5L, S25T, S28A, T31S, S52N, N54D, T55I, S57F, W99S
notes: Printed entries run through CL and CH1 (Fab chains); Label G3 tied to PFG3 by inference
Turning to B5, the koff in assay [1] is 0.0158 s⁻¹. Further, in [2], the dissociation constant Kd is 183 nM, the dissociation rate constant (koff) was 0.019 s⁻¹ and the on-rate (kon) stood at 108000 M⁻¹ s⁻¹.

B6: P1C5 antibody (antibody, V domains shown)
VH: QVQLQESGPGLVKPSETLSLTCTVSGGSISSSSYYWGWIRQPPGKGLEWIGSIYYSGSTYYNPSLKSRVTISVDTSKNQFSLKLSSVTAADTAVYYCARYAPDSSGYLVAFDIWGQGTMVTVSS
VL: B4 VL with S32G, T55S, W99S
As to B6, the binding result with HER-3 [6] and in the assay with EGFR [7] was “no binding” throughout. Also, in assay [3], the Kd came to 12.7 nM.

B7: P1E4 antibody (antibody, V domains shown)
VH: QVQLQQWGAGLLKPSETLSLTCAVYGGSFSGYYWSWIRQPPGKGLEWIGEINHSGSTNYNPSLKSRVTISVDTSKNQFSLKLSSVTTADTAVYYCARMGINSGGYLYGMDVWGQGTTVTVSS
VL: B4 VL with T41I, S52T, T55I, S65G, D83E, V91M
As for B7, in [3], the Kd came out at 5.3 nM. The binding result in the assay with EGFR [8] and with HER-3 [9] was “no binding” in each case.

B8: P1A3 antibody (antibody, V domains shown)
VH: EVQLVQSGTEVKKPGASVRVSCKSSGYTFTSYYIHWVRQAPGQGLEWMAIINPGNGDTNYAQRFQGRVTMTRDTSTSTVYMELRSLRSDDTAVYFCAREIASYSGSYYDYWGQGTLVTVSS
VL: B4 VL with T2A, F10L, S32G, Y33H, P35A, I50F, S52N, L69V, M94V, S96D
Turning to B8, the binding result with HER-3 [10] and with EGFR [11] was “no binding” each time. In addition, in assay [3], the Kd was found to be 21.4 nM.

B9: PFF5 Fab (Fab, V domains shown)
VH: B6 VH with K83R, T88S
VL: B4 VL with T2A, T5I, S32T, S96N, W99S
B9: the off-rate constant (koff) in assay [1] is 0.0141 s⁻¹. Besides, in [2], the dissociation constant Kd came out at 305 nM, the koff amounted to 0.014 s⁻¹ and the kon is 44500 M⁻¹ s⁻¹.

Source of the values: patent US20210139605A1 (AGENCY FOR SCIENCE TECHNOLOGY AND RESEARCH, published 2021).
